# T1: ArcR-His6 (Staphylococcus aureus TZ0912) (UniProt Q2FUY1)
# T1 sequence: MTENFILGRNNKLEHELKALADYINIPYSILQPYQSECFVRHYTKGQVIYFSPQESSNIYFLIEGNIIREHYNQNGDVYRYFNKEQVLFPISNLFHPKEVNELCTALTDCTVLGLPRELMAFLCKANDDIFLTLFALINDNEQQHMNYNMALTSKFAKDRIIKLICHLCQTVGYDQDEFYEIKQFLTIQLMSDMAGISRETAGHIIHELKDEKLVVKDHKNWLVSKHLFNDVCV
# T2: ArcR-His6 (Staphylococcus aureus TZ0912, UniProt Q2FUY1 1-234)
# T2 sequence: T1 sequence
# T3: AgrA-His6 (Staphylococcus aureus TZ0912, UniProt Q5HEG2 1-238)
# T3 sequence: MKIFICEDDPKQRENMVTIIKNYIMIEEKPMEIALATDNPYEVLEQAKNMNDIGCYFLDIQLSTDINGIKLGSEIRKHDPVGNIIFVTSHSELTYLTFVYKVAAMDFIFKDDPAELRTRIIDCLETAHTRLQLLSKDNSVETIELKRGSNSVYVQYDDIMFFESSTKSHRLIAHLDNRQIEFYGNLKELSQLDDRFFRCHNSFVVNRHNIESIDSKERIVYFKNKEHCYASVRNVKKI
# B1: Pcas-137-108 (Table S2: -156-127) (dsDNA)
# DNA 1: AGAATGTGAAGTTATTAGTAAACTTAGCAA
# DNA 2: TTGCTAAGTTTACTAATAACTTCACATTCT
# B2: agr P2 promoter (dsDNA)
# DNA 1: TACATTTAACAGTTAAGTATTTATTTCCTACAGTTAGGCAATATAATG
# DNA 2: CATTATATTGCCTAACTGTAGGAAATAAATACTTAACTGTTAAATGTA
# B3: Pcas-142-103 (Table S2: -161-122) (dsDNA)
# DNA 1: TAATGAGAATGTGAAGTTATTAGTAAACTTAGCAAAAGAT
# DNA 2: ATCTTTTGCTAAGTTTACTAATAACTTCACATTCTCATTA
# B4: Pcrispr1+4+20 (dsDNA)
# DNA 1: TGTCAAAAAAAGTGACA
# DNA 2: TGTCACTTTTTTTGACA
# B5: Pcas-132-113 (Table S2: -151-132) (dsDNA)
# DNA 1: GTGAAGTTATTAGTAAACTT
# DNA 2: AAGTTTACTAATAACTTCAC
# B6: Pcrispr1-26+24 (dsDNA)
# DNA 1: CTTAATATATAGAAAATTATCATAATATTTGTCAAAAAAAGTGACATTTC
# DNA 2: GAAATGTCACTTTTTTTGACAAATATTATGATAATTTTCTATATATTAAG
# B7: Pcas-133-118 (Table S2: -152-137) (dsDNA)
# DNA 1: TGTGAAGTTATTAGTA
# DNA 2: TACTAATAACTTCACA
# Columns and labels:
# [1] = target: T1, ArcR-His6 (Staphylococcus aureus TZ0912); test: EMSA; conditions: EMSA: 750 mM NaCl, 50 mM Tris-HCl pH 7.4, 0.5 mM DTT, 0.5 mM EDTA (as printed for binding buffer), 20 ng probe in 20 uL, 30 min 37 C; 6% gel, 0.5x TBE
# ArcR-His6 [2] = target: T2, ArcR-His6; test: EMSA; 7.2 uM; EMSA: 750 mM NaCl, 50 mM Tris-HCl pH 7.4, 0.5 mM DTT, 0.5 mM EDTA (as printed for binding buffer), 20 ng probe in 20 uL, 30 min 37 C; 6% gel, 0.5x TBE; conditions: protein: recombinant; tags: His6 (pET28a NdeI/XhoI); chain copies: 2; label: 5'-FAM; blunt
# AgrA-His6 = target: T3, AgrA-His6; test: EMSA; shift from 0.25 uM; EMSA: 750 mM NaCl, 50 mM Tris-HCl pH 7.4, 0.5 mM DTT, 0.5 mM EDTA (as printed for binding buffer), 20 ng probe in 20 uL, 30 min 37 C; 6% gel, 0.5x TBE; conditions: protein: recombinant; tags: His6 (pET28a NdeI/XhoI); chain copies: 2; label: 5'-FAM; blunt
# ArcR-His6 [3] = target: T2, ArcR-His6; test: EMSA; EMSA: 750 mM NaCl, 50 mM Tris-HCl pH 7.4, 0.5 mM DTT, 0.5 mM EDTA (as printed for binding buffer), 20 ng probe in 20 uL, 30 min 37 C; 6% gel, 0.5x TBE; conditions: protein: recombinant; tags: His6 (pET28a NdeI/XhoI); chain copies: 2; label: 5'-FAM; blunt
molecule,measurement,setting,value
GGGAGAACTAGAGATAGAATTTGGAAAAAGATTGTTGTAAATAAAATTATTAATCAATCAAAATGTTTAGAAAACAATTTACATAATGAGAATGTGAAGTTAT (double strand) [Pcas-222-123 (Table S2: -241-142)],binding,[1],no binding
CATATATAATAAGTATTTAATTTTAATATATTTAAACTAATAATAATCAAATATACACTATTAACTGAAGATTTCATTGACTTGACATTTATTAAACTTT (double strand) [Pcrispr1-276-177],binding,[1],no binding
ATATAGTAGCATGGTGTTAGTTGTCACAGTTTTTGACAGCCAAAATAACACTTGAACCTTTGTGGTTATGCTATTTATTAAAGTATCT (double strand) [Pcrispr1+25+112],binding,[1],no binding
B1,binding result,ArcR-His6 [2],binds
B2,binding result,AgrA-His6,binds
B3,binding result,ArcR-His6 [2],binds
B4,binding result,ArcR-His6 [3],no binding
B5,binding result,ArcR-His6 [2],no binding
B6,binding result,ArcR-His6 [2],binds
B7,binding result,ArcR-His6 [3],no binding

# Source: publication PMC12462963, “Quorum Sensing Inhibits Type III‐A CRISPR‐Cas System Activity Through Repressing Positive Regulators SarA and ArcR in Staphylococcus Aureus”
